Consider 125 sequences from the supplement of paper PMC9112550, “Optimization of the antimicrobial peptide Bac7 by deep mutational scanning” (BMC Biology, 2022).
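Also: peptides expressed intracellularly from a pBAD plasmid library in pooled LB shake-flask culture, induced with 0.3% L-arabinose, DNA abundance read by NGS, three biological replicates, DESeq2 with apeglm shrinkage.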

The data set concerns Escherichia coli TOP10. In words: shrunken log2 fold change of peptide-encoding DNA abundance (4.5 h post-induction vs induction); higher = less antimicrobial activity (less host growth inhibition). As to conditions: time post-induction: 4.5 h; library: site-saturation at positions 5, 18, 19, 20.
Consider RRIRDRPPRLPRPRPRPWEMPRP, for which the “shrunken log2 fold change” value worked out at 0.335.

Turning to RRIRYRPPRLPRPRPRPIQDPRP, the “shrunken log2 fold change” value is -0.00166.

For RRIRSRPPRLPRPRPRPLCTPRP, the “shrunken log2 fold change” value was determined as 0.0479.

RRIRQRPPRLPRPRPRPADLPRP: the “shrunken log2 fold change” value is -0.0217.

Take RRIRERPPRLPRPRPRPDYNPRP: the “shrunken log2 fold change” value was -0.53.

In the case of RRIRMRPPRLPRPRPRPRNNPRP, the “shrunken log2 fold change” value was 0.063.

Regarding RRIRCRPPRLPRPRPRPNQSPRP, the “shrunken log2 fold change” value was determined as 2.47.

For the sequence RRIRIRPPRLPRPRPRPGDHPRP, the “shrunken log2 fold change” value is 0.14.

As to RRIRPRPPRLPRPRPRPQCQPRP, the “shrunken log2 fold change” value is 0.00656.

RRIRCRPPRLPRPRPRPLIHPRP: the “shrunken log2 fold change” value was -0.842.

Take RRIRRRPPRLPRPRPRPKYHPRP: the “shrunken log2 fold change” value is -0.153.

Turning to RRIRFRPPRLPRPRPRPGFTPRP, the “shrunken log2 fold change” value was -0.187.

On to RRIRCRPPRLPRPRPRPDLHPRP, for which the “shrunken log2 fold change” value was -0.252.

With RRIRPRPPRLPRPRPRPRYRPRP, the “shrunken log2 fold change” value is 0.0725.

On to RRIRMRPPRLPRPRPRPLEAPRP, for which the “shrunken log2 fold change” value came to 2.46.

Regarding RRIRVRPPRLPRPRPRPFNGPRP, the “shrunken log2 fold change” value is -0.15.

Regarding RRIRKRPPRLPRPRPRPTMFPRP, the “shrunken log2 fold change” value stood at 0.165.

As for RRIRYRPPRLPRPRPRPVVHPRP, the “shrunken log2 fold change” value is -0.00114.

As to RRIRLRPPRLPRPRPRPDETPRP, the “shrunken log2 fold change” value was -0.0184.

Take RRIRVRPPRLPRPRPRPTCSPRP: the “shrunken log2 fold change” value was 0.19.

Take RRIRPRPPRLPRPRPRPQNEPRP: the “shrunken log2 fold change” value was -0.183.

As to RRIRMRPPRLPRPRPRPLCVPRP, the “shrunken log2 fold change” value worked out at 0.361.

As to RRIRMRPPRLPRPRPRPWFFPRP, the “shrunken log2 fold change” value is -0.0229.

With RRIRVRPPRLPRPRPRPQVLPRP, the “shrunken log2 fold change” value amounted to 0.00638.

RRIRARPPRLPRPRPRPMEGPRP: the “shrunken log2 fold change” value is 0.667.

For RRIRFRPPRLPRPRPRPKQLPRP, the “shrunken log2 fold change” value is -0.123.

With RRIRSRPPRLPRPRPRPPTMPRP, the “shrunken log2 fold change” value is -0.00342.

With RRIRDRPPRLPRPRPRPHSNPRP, the “shrunken log2 fold change” value is 0.0359.

Turning to RRIRRRPPRLPRPRPRPHYQPRP, the “shrunken log2 fold change” value was -0.319.

Regarding RRIRQRPPRLPRPRPRPESMPRP, the “shrunken log2 fold change” value was found to be 0.00186.

With RRIRHRPPRLPRPRPRPNKRPRP, the “shrunken log2 fold change” value is -0.198.

For the sequence RRIRCRPPRLPRPRPRPHMQPRP, the “shrunken log2 fold change” value is -0.322.

For RRIRLRPPRLPRPRPRPMCPPRP, the “shrunken log2 fold change” value was 0.128.

In the case of RRIRIRPPRLPRPRPRPPMVPRP, the “shrunken log2 fold change” value is -0.572.

With RRIRYRPPRLPRPRPRPVKEPRP, the “shrunken log2 fold change” value worked out at 0.00241.

Consider RRIRHRPPRLPRPRPRPIANPRP, for which the “shrunken log2 fold change” value was -0.24.

For the sequence RRIRCRPPRLPRPRPRPYCDPRP, the “shrunken log2 fold change” value is -0.623.

As for RRIRCRPPRLPRPRPRPGWWPRP, the “shrunken log2 fold change” value was found to be 0.054.

As for RRIRIRPPRLPRPRPRPYKRPRP, the “shrunken log2 fold change” value was -0.0487.

Take RRIRVRPPRLPRPRPRPLLWPRP: the “shrunken log2 fold change” value amounted to 0.145.

On to RRIRIRPPRLPRPRPRPRCMPRP, for which the “shrunken log2 fold change” value is -0.284.

RRIRLRPPRLPRPRPRPACKPRP: the “shrunken log2 fold change” value stood at 0.00454.

For the sequence RRIRFRPPRLPRPRPRPHFHPRP, the “shrunken log2 fold change” value is -0.75.

Turning to RRIRPRPPRLPRPRPRPNWGPRP, the “shrunken log2 fold change” value is -0.057.

As to RRIRSRPPRLPRPRPRPYIFPRP, the “shrunken log2 fold change” value is -0.683.

For the sequence RRIRFRPPRLPRPRPRPIGTPRP, the “shrunken log2 fold change” value was -0.329.

Turning to RRIRDRPPRLPRPRPRPGTPPRP, the “shrunken log2 fold change” value was 0.223.

Consider RRIRTRPPRLPRPRPRPNVQPRP, for which the “shrunken log2 fold change” value is -0.429.

Take RRIRARPPRLPRPRPRPERVPRP: the “shrunken log2 fold change” value is 0.577.

As to RRIRARPPRLPRPRPRPGYVPRP, the “shrunken log2 fold change” value is -0.0339.

Take RRIRMRPPRLPRPRPRPAPEPRP: the “shrunken log2 fold change” value was 0.874.

In the case of RRIRDRPPRLPRPRPRPSSAPRP, the “shrunken log2 fold change” value was determined as 0.0666.

Take RRIRDRPPRLPRPRPRPPANPRP: the “shrunken log2 fold change” value came out at 0.0989.

As to RRIRRRPPRLPRPRPRPICEPRP, the “shrunken log2 fold change” value was 0.356.

Consider RRIRHRPPRLPRPRPRPMMPPRP, for which the “shrunken log2 fold change” value is -0.365.

Take RRIRPRPPRLPRPRPRPSHLPRP: the “shrunken log2 fold change” value is -0.168.

For RRIRFRPPRLPRPRPRPLAHPRP, the “shrunken log2 fold change” value was -0.13.

On to RRIRGRPPRLPRPRPRPKRIPRP, for which the “shrunken log2 fold change” value was determined as 0.147.

As to RRIRQRPPRLPRPRPRPRMHPRP, the “shrunken log2 fold change” value is -0.0115.

Consider RRIRPRPPRLPRPRPRPLFRPRP, for which the “shrunken log2 fold change” value is 0.159.

Regarding RRIRKRPPRLPRPRPRPKICPRP, the “shrunken log2 fold change” value was 0.0599.

Take RRIRVRPPRLPRPRPRPIAIPRP: the “shrunken log2 fold change” value was -0.0841.

Take RRIRRRPPRLPRPRPRPEPSPRP: the “shrunken log2 fold change” value is 0.228.

Regarding RRIRARPPRLPRPRPRPWNVPRP, the “shrunken log2 fold change” value is -0.181.

Take RRIRQRPPRLPRPRPRPKRQPRP: the “shrunken log2 fold change” value was determined as 0.0299.

Regarding RRIRIRPPRLPRPRPRPAEMPRP, the “shrunken log2 fold change” value came to 0.0228.

For the sequence RRIRWRPPRLPRPRPRPKEWPRP, the “shrunken log2 fold change” value amounted to 0.00353.

RRIRERPPRLPRPRPRPNDTPRP: the “shrunken log2 fold change” value is -0.348.

Consider RRIRNRPPRLPRPRPRPWIIPRP, for which the “shrunken log2 fold change” value was -0.429.

As to RRIRDRPPRLPRPRPRPHFVPRP, the “shrunken log2 fold change” value was -0.193.

Regarding RRIRDRPPRLPRPRPRPRYDPRP, the “shrunken log2 fold change” value is -0.284.

As to RRIRARPPRLPRPRPRPHGEPRP, the “shrunken log2 fold change” value is -0.00651.

On to RRIRGRPPRLPRPRPRPQRAPRP, for which the “shrunken log2 fold change” value amounted to 0.466.

As for RRIRHRPPRLPRPRPRPRLGPRP, the “shrunken log2 fold change” value amounted to 0.143.

RRIRFRPPRLPRPRPRPWLYPRP: the “shrunken log2 fold change” value was -1.2.

Turning to RRIRERPPRLPRPRPRPWELPRP, the “shrunken log2 fold change” value was -0.238.

For the sequence RRIRHRPPRLPRPRPRPHFEPRP, the “shrunken log2 fold change” value is 0.0715.

RRIRIRPPRLPRPRPRPGKYPRP: the “shrunken log2 fold change” value is -0.394.

Take RRIRQRPPRLPRPRPRPARKPRP: the “shrunken log2 fold change” value came out at 0.0862.

Turning to RRIRARPPRLPRPRPRPVFRPRP, the “shrunken log2 fold change” value was found to be 0.143.

Consider RRIRVRPPRLPRPRPRPRFKPRP, for which the “shrunken log2 fold change” value was 0.107.

Take RRIRDRPPRLPRPRPRPMGFPRP: the “shrunken log2 fold change” value was determined as 0.258.

Consider RRIRARPPRLPRPRPRPAMHPRP, for which the “shrunken log2 fold change” value was determined as 0.589.

Consider RRIRCRPPRLPRPRPRPQQQPRP, for which the “shrunken log2 fold change” value stood at 0.339.

As for RRIRKRPPRLPRPRPRPSCQPRP, the “shrunken log2 fold change” value was 0.176.

Consider RRIRDRPPRLPRPRPRPTYFPRP, for which the “shrunken log2 fold change” value is -0.0127.

On to RRIRQRPPRLPRPRPRPWRSPRP, for which the “shrunken log2 fold change” value is 0.0241.

Take RRIRYRPPRLPRPRPRPPWTPRP: the “shrunken log2 fold change” value was -0.343.

For RRIRCRPPRLPRPRPRPGIIPRP, the “shrunken log2 fold change” value was -0.00738.

Regarding RRIRPRPPRLPRPRPRPKHMPRP, the “shrunken log2 fold change” value was -0.0288.

In the case of RRIRFRPPRLPRPRPRPEPMPRP, the “shrunken log2 fold change” value was -0.278.

In the case of RRIRARPPRLPRPRPRPLAMPRP, the “shrunken log2 fold change” value is 0.474.

With RRIRLRPPRLPRPRPRPSGWPRP, the “shrunken log2 fold change” value is 0.0673.

For the sequence RRIRLRPPRLPRPRPRPHTRPRP, the “shrunken log2 fold change” value was -0.0601.

Turning to RRIRKRPPRLPRPRPRPVSCPRP, the “shrunken log2 fold change” value worked out at 0.129.

Regarding RRIRVRPPRLPRPRPRPGMGPRP, the “shrunken log2 fold change” value amounted to 0.0724.

In the case of RRIRRRPPRLPRPRPRPIGLPRP, the “shrunken log2 fold change” value is -0.0953.

As for RRIRPRPPRLPRPRPRPQTEPRP, the “shrunken log2 fold change” value is 0.0275.

Turning to RRIRNRPPRLPRPRPRPIIIPRP, the “shrunken log2 fold change” value is -0.663.

In the case of RRIRQRPPRLPRPRPRPIERPRP, the “shrunken log2 fold change” value was -0.0353.

With RRIRGRPPRLPRPRPRPIHGPRP, the “shrunken log2 fold change” value is -0.161.

Take RRIRKRPPRLPRPRPRPEVTPRP: the “shrunken log2 fold change” value was -0.0421.

Consider RRIRGRPPRLPRPRPRPFAHPRP, for which the “shrunken log2 fold change” value came to 0.162.

Regarding RRIRMRPPRLPRPRPRPVSIPRP, the “shrunken log2 fold change” value amounted to 0.0541.

For the sequence RRIRFRPPRLPRPRPRPFGEPRP, the “shrunken log2 fold change” value is 0.135.

As for RRIRFRPPRLPRPRPRPYSMPRP, the “shrunken log2 fold change” value is -0.417.

Regarding RRIRHRPPRLPRPRPRPPHKPRP, the “shrunken log2 fold change” value came out at 0.0336.

Regarding RRIRGRPPRLPRPRPRPNIHPRP, the “shrunken log2 fold change” value is 0.0679.

For RRIRCRPPRLPRPRPRPIHIPRP, the “shrunken log2 fold change” value was -0.893.

With RRIRKRPPRLPRPRPRPKGHPRP, the “shrunken log2 fold change” value came out at 0.123.

As for RRIRSRPPRLPRPRPRPVNVPRP, the “shrunken log2 fold change” value is -0.156.

On to RRIRQRPPRLPRPRPRPIKQPRP, for which the “shrunken log2 fold change” value is 0.00621.

Consider RRIRYRPPRLPRPRPRPGYTPRP, for which the “shrunken log2 fold change” value amounted to 0.0577.

For RRIRLRPPRLPRPRPRPCMFPRP, the “shrunken log2 fold change” value is -0.431.

RRIRRRPPRLPRPRPRPMMLPRP: the “shrunken log2 fold change” value was -0.142.

For RRIRCRPPRLPRPRPRPNIKPRP, the “shrunken log2 fold change” value is -0.647.

In the case of RRIRSRPPRLPRPRPRPCCMPRP, the “shrunken log2 fold change” value was -0.0571.

As for RRIRHRPPRLPRPRPRPNAYPRP, the “shrunken log2 fold change” value is -0.219.

As to RRIRTRPPRLPRPRPRPIKHPRP, the “shrunken log2 fold change” value is -0.454.

Consider RRIRSRPPRLPRPRPRPDVIPRP, for which the “shrunken log2 fold change” value is 0.0141.

Take RRIRARPPRLPRPRPRPQGVPRP: the “shrunken log2 fold change” value is -0.128.

With RRIRKRPPRLPRPRPRPDVQPRP, the “shrunken log2 fold change” value was -0.00299.

Turning to RRIRCRPPRLPRPRPRPTESPRP, the “shrunken log2 fold change” value stood at 0.101.

Take RRIRARPPRLPRPRPRPWAMPRP: the “shrunken log2 fold change” value was found to be 0.0453.

As for RRIRPRPPRLPRPRPRPKGCPRP, the “shrunken log2 fold change” value turned out to be 0.394.
